Experimental findings from patent US20090307790 are described below.

Data set [1] deals with RhoA, produced as GST-fusion protein in E. coli BL21 [GST: P08515].
Data set [2] has as its target Rac1, produced as GST-fusion protein in E. coli BL21 [GST: P08515].
Data set [3] has as its target cdc42, produced as GST-fusion protein in E. coli BL21 [GST: P08515].

B1: catalytic domain of wild type Tagap1, produced as GST-fusion protein in E. coli BL21 (protein)
chain: QPLSIICGENDTLPRPIQDILTILCLKGPSTEGIFRKAASEKARKELKEGLNCGVSVNLKQLPVHLLAVVFKDFLRGIPLKLLSCDLFEDWMGALEKPTEEDRIEALKQVAGGLPRPNLLLLRHLLYVLHLISKNAEVNKMDSSNLAICIGPNMLTLKNDQSLSFQAQKDLNNKVKILVEFLIDNCFEIF
For B1, in data set [1], the “GTPase activity of RhoA (GAP-activity assay, FIG. 2e)” value is on record as “Tagap1 enhances the GTPase activity of RhoA” and the “GTPase activity of RhoA (in vitro GAP assay)” value is “the GTPase activity of RhoA was strongly enhanced by the GAP domain of Tagap1”. The “GTPase activity of Rac1 (in vitro GAP assay)” value in data set [2] is reported as “hardly (Rac1) stimulated”. For the same protein, the “GTPase activity of Cdc42 (in vitro GAP assay)” value in data set [3] is reported as “only mildly (Cdc42) ... stimulated”.
